# Assay: yeast display, Sf9 membrane polyspecificity reagent, FACS + sequencing; frameworks hold sequencing errors
# How it was run: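 Synthetic nanobody libraries on Saccharomyces cerevisiae BJ5465 were galactose-induced for 36–48 hours, stained 1 hour at 4 °C with 10% biotinylated, detergent-solubilized Sf9 membrane reagent and enriched on streptavidin microbeads. FACS then separated cells into low and high (top ~1%) gates by anti-HA (expression) and streptavidin (reagent binding) fluorescence. Genes were colony-PCR amplified, MiSeq 2 × 250 sequenced and CDR-length filtered. A clone's polyreactivity label is that of its gate of origin.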
row,Sequence,polyreactivity (PSR sort gate)
1,QVQLVESGGGLVQAGGSLRLSCAASGSTFLYNALGWYRPAPGKEREFVAAISGSGGTTYYADSVKGRFTISRDNAKNTVYLQMNSLKPEDTAVYYCAVSQSWYWYYASDYWGQGTQVTVSS,low polyreactivity
2,QVHLVESGGGLVQAGGSLRLSCAASGSTFGVYAMGWYRQAPAKERELVAAISSSTGSTYYADSVKGRFTISRDNEKNTVYLQMNSLKPEDTAVYFCAAAGYGKVRGDYWGQGSQVTVSS,low polyreactivity
3,QVQLVESGGGLVQAGGSLRLSCAASGITFYYNDMGWYRQAPGKERELVAAISSGGTTNYADSVKGRFTISRDNAKNTVYLQMNSLKPEDTAVYYCATGYAEPEWYPFVSDYDYWGQGTQVTVSS,low polyreactivity
4,QVQLVESGGGLVQAGGSLRLSCAASGSIFEVYAMGWYRQAPGKERELVAAINYTGGSTYYADSVKGRFTISRDNAKNTVYLQMNSLKPEDTAVYYCAVPRGVASLQKVEFGYWGQGTQVTVSS,low polyreactivity
5,QVQHEESGGGLVQAGGSLRLSCAASGFTFGTNAMGWSRQAPGKERELVAAISTRGGSTYYADSVKGRFTISRDNAKNTVYLQMNSLKPEDTAVYYCAAYWGRTRYYGYDYYYWGQGTQVTVSS,high polyreactivity
6,QLQLVESGGGLVQAGGSLRLSCAASGNTFFPYTMGWYRQAPGKERELVAAITWSGVSTYYADSVKGRFTISRDNAKYTVDLQMNSLKPEDTAVYYCAAPSTGTYGSDYWGQGTQVTVSS,high polyreactivity
7,QVQLVESGGGLVQAGGSLRLSCAASGLTFSNYAMGWYRQAPGKERELVAAISASGGSTYYADSVKGRFTISRDNAKNTVYLQMNSLKPEDTAVYYCAAATTRPVYPANDDYWGQGTQVTVSS,low polyreactivity
8,QVQLVESGAGLVQAGGSLRLSCAASGTTFWKYVMGWYRQAPGKERELVAAITSRGGSTYADSVKGRFTISRDNAKNSVYLQMNSLKPEDTAVYYCAATKFWYYGYDYWGQGTQVTVSS,low polyreactivity
9,QVQLVESGGGLVQAGGSLRLSCAASGRTFYRYAMGWYRHAPGKERELVASITRGTSTNYADSVKGRFTISRDNAKNTVYLQMNSLKPEDTAVYYCNRRIFGGQRMYYWGQGTQVTVSS,high polyreactivity
10,QVQLVESGGGLVQAGGSLRLSCAASGSTFAGNAMGWYRQAPGKERELVAAISSGDRTYYADSVKGRFIISRDNAKNTVYLQMNSLKPEDTAVYYCAAGLYLQGPFDYWGQGTQVTVSS,low polyreactivity
11,QVQLVESGGGLVQAGGSLRLSCAASGSNFGRYVMGWYRQAPGKERELVAAITRTGVRTYYADSVKGRFTISRDNANNTVYLQINSLKPEDTAVYYCNRYGARSNDYWGQGTQVTESS,low polyreactivity
12,QVQLVESGGGLVQAGGSLRLSCAASGSTVAYYAMGWYRQAPGKERELVAAITWNGGRTFYADSVKGRFTISRDNAKNTVYLQMNSLKPEDTAVYYCAAATYQSRYFQRFDYWGQGTQVTVSS,high polyreactivity
13,QVQLVESGGGLVQAGGSLRLSCAASGSTFVRNAMGWYRQAPWKERELVAAIRWRSGSTYYADSVKGRFTISRDNAKNTVYLQMNSLKPEDPAVYYCAVDYNSFRYGPLGYWGQGTQVTVSS,high polyreactivity
14,QVQLVESGGGLVQAGGSLRLSCAASGSTFVGNAMGCYRQAPVKERELVATISNSGGHTFYADSVKGRFTISRDNAKNTVYLQMNSLKPEDTAVFYCAASTSGAIRRDGYWGQGTQVTVSS,low polyreactivity
15,QAQLQESGGSLVQAGGGLRLSCAASGYISVGSVMGWYRQAPSKERELVASIDQGANTNYADSVKGRFTISRDNAKNNVYLQMNSLKPEDTAVYYCATVTTYILNYWGQGTQVTVCS,low polyreactivity
16,QVQLVESGGALVQAGGSLRLSCAASGRTFWDYAMGWYREAPGKERELVAAITWGGGSTYYADSVKGRFTISRDNAKNTVYLQMNSLKPVDTAVYYCAAGRGRHTYNYWGQGTQVTVTS,low polyreactivity
17,QVQLVESGGGLVQAGGSLRLSCAASGSIFSPNAMGWYRQAPGKERELVATISFSGGRTYYADSVKGRFTISRDNAKNTVYLQMNSLKPEDTAVYYCAKAYYYTDMDYWGQGTQVTVSS,low polyreactivity
18,QVQLVESGGGLVQAGGSLRLSCAASGRIFYGYTMGWYRQAPGKERELVAAISSSGGSTYYADSVKGRFTISRDNAKNTVYLQMNSLIPEDTAVYYCAAYVPYSPYHVEFNYWGQGTQVTVSS,high polyreactivity
19,QVQLVESGGGLVQAGGSLRLSCAASGFTYRPNAMGWYRQAPGKERELVASIRYSGGSTYYADSVKGRFTISRDNAKNTVYLQMNSLKPEDTAVYYCAAVLYSWMRLGSTYTYDYWGQGTQVTVSS,low polyreactivity
20,QVQLVESGGGLVQAGGSLRLSCAASGSIFGYYAMGWYRQAPGKERELVARISYSGGTTYYADSVKGRFTISRDNAKNTVYLQMNSLKPEATAVYYCNARIPYSWRYGYWGQGTQVTVSS,high polyreactivity
21,QVQLVESGGGLVQARGSLRLSSAASGIIFCHYVMGWYRQAPGKERELVAAISSRGGNTYYADSVKWRFTISRDNAKNTVYFQMNSLKPEDTAVYYCNARGGARAWYFAYNYWGHGTQVTVSS,high polyreactivity
22,QVQLVESGGGLVQAGGSLRLSCAASGFTFKYYAMGWYRQAPGKERELVAGISLIDGSTYYADSVKGRFTISRDNAKNTVYLQMNSLKPEDTAVYSCAKDRAPDGHYGSYDYWGQGTQVTVSS,low polyreactivity

row,Sequence,polyreactivity (PSR sort gate)
1,QVQLVESGGGLVQAGGSLRLSCAASGSIFYEYAMGWYRQAPGKEREFVAAISSSGGSTYYADSVKGRFTISRDNAKNTVYLQMNSLKPEDTAVYYCAADIYYYLWGLYYWGQGTQVTVSS,low polyreactivity
2,QVQLVESGGGLVQAGGSLRLSCAASGRIFYAYAMGLYRQAPGKERELVAAITWSGGSTYYADSVKGRFTISRDNAKNTVYLQMNSLKQEDTAVYYCAADLRVKYVHTYSYVWYRYDYWGQGTQVTVSS,high polyreactivity
3,QVQLVESGGGLVQAGGSLRLSCAASGSIFGTNAMGWYRQAPGKERELVAAIDGGSTTYYADSVKGRFTISRDNAKNTVYLQMNSLKPEDTAVYYCAADGTRYLNYEGYAGYEYWGQGTQVTVSS,low polyreactivity
4,QVQLVESGGGLVQAGGSLRLSCAASGRIFTINAMGWYRQAPGKERELVAVITRGGSTKYADSVKGRFTISRDNAKNTVYLQMNSLKPEDTAVYYCAARVRAGHGKNGYWGQGTQVTVSS,high polyreactivity
5,QVQLVESGGGLVQAGGSLRLSCAASGSIYDYNTMGWYRQAPGKERELVAAISASGGRTYYADSEKGRFTISRDNAKNTVYLQMNSLKPEDTAVYYCARYYIGYYERFGYDYWGQGTQVTVSS,high polyreactivity
6,QVQLVESGGGLVQAGGSLRLSCAASGRTFRRNVMGWYRQAPGKERELVAAISTRGGDTYYADSVKGRFTISRDNAKNTVYLQMNSLKPEDTAVYYCAAEYTYGYDYWGQGTQVTVSS,high polyreactivity
7,QDQLVESGGGLVQAGGSLRLSCAASGSTFPPYAMGWNRQAPGKERELVDTSTRIGGSTYYADSVKGRFTISRDNAKKTVYLQKNSLKPEDTALYYCTARRYQSYRYYYWGQGTQVTVSS,high polyreactivity
8,QVQLVESGGGLVQAGGSLRLSSAASGRTFVINAMGWYRQAPGKERELVAAITWGGGSTYYADSVKGRFTISRDNAKNTVYLQMNSLKQEDSAVYYCATSYSVQYGGSGYYWGQGTQVTVSS,low polyreactivity
9,QVQLVESGGGVVQAGGSLRLSCAASGSTFYSYAMGWYRQAPGKERELVAAISSGGGRTYYADSVKGRFTISRDNAKNTVYLQMNSLKPEDTAVYYCAASYWYRDYYYWGQGTQVTVSS,high polyreactivity
10,QVQLVESGGGLVQAGGSLRLSCAASRLTFRYYAMGWYRQAPGKERELVASISSSSGSTYYADSVKGRFTISRDNAKNTVYFQMNSLKPEDTAVYYCNARGWTLGADFGYWGQGTQVTVSS,low polyreactivity
11,QVQLVESGGGLVQAGGSLRLSCAASGSTFKAYAMGWYRQAPGKERELVAAITKSGGRTYYADSVKGRFTISRDNAKNTVYLQMISLKPEDTAVYYCAAVFRPDSSAYRYYYWGQGTQVTVSS,high polyreactivity
12,QVQLVESGGGLVQAGGSLRLSCAASGSIFGFYAMGLYIQEPGKERELVAAITSGDSTHYADSVKGRFTISRDNAKNTVYLQMNSLKPEDTAVYYCATEYLYVDFFIRYDYWGQGTQVTVSS,low polyreactivity
13,QVQLVESGGGLVQAGGSLRLSCAASGRTFPGYAMGWYRQAPGKEREVVAGISYRGGSTYYADSVKGRFTISRDNPKNTVYLQMNSLKPVDTAVYYCARDYSRHKGDYWGQGTQVTVSS,low polyreactivity
14,QVQLVESGGGLVQAGGSLRLSCAASGYTFLPYALGWYRQAPGKERELVAAINWGGGSTYYADSVKGRFTISRDNAKNTVYLQMNSLKPEDTAVYYCNAKRPFGGLDYWGQGSQVTVSS,low polyreactivity
15,QVQLVESGGGLVQAGGSLRLSCAASGITLGYYAMGWYRQAPGKERELVAAISYSSGSTYYADSVKGRFTIARDTAKNTVYLQMNSLKPEDTAVYYCAKYVTYYLPTYSPSGKHDYWGQVTQVTVSS,low polyreactivity
16,QVQLVESGGGLGQAVGRLRLSCAASGSTFDPNTMGWYRQAPGKERELVATITSVDSTNYADSVKGRFTISRDNAKNTVYLQMNSLKPEDTAVSYCNAAYGGVFFYAYDYWGQGTQVTVSS,low polyreactivity
17,QVQLVESGGGLVQAGGSLRLSCAASGFIFGRYAMGWYRQSPGKERELVAVISKRGDNTYYADSVKGRFTISRDNAKNTVYLQMNSLKPEDTAVYYCNVKRYGGRSDYWGQGTQVTVSS,high polyreactivity
18,QVQLQESGGGLVQAGGSLRLSCAASGNISVTGFMGWYRQAPGKERELVASIGIGATTYYADSVKGRFSISRDNAKNTVYLQMNSLKPEDTAVYYCAARYLYYAYSYWGQGTQVTVSS,low polyreactivity
19,QVQLVESGGGLVQAGGSLRLSCAASGSIFKPYAMGWYRQAPGKERELVAVISSGGSTNYADSVKGRFTISRDNAKNTVYLQMNSLKPEDTAVYYCAAEDQYGYDYWGQGTQVTVSS,high polyreactivity
20,QVQLVESGGGLVQAGGSLRLSCAASGRTFGYYTMGWYRQAPGKEWELVATIRWSGGSTYADSVKGRFTISRDNAKNTVYLQLNSLKPEDTAVYYCYVDPSYYKILFNGFYYWGQGTQVTVSS,high polyreactivity
21,QVQLVESGGGLVQAGGSLRLSCAASGLTFIYYSMGWYRQAPGKERELVAAISVSGGSTYYADSVKGRFTISRDNAKNTVYLQMNSLKPEYTAVYYCAGDWFVHKPRYQYSFDYWGQGTQVTVSS,low polyreactivity

# — the nanobody polyreactivity screen of Harvey et al. (2022)
